Experimental data as given in US20110311517A1 (SHENOGEN PHARMA GROUP, published 2011).

Assays:
[1] = target: T1, recombinant human ERα36 (hER-α36, SEQ ID NO:1) expressed in HEK293 cells (human, UniProt P03372 174-457); assay: Western blot on lysates of ERα36-expressing HEK293 cells, anti-His-HRP
T1 construct: Present in lysates of ERα36-expressing HEK293 cells, separated by SDS-PAGE and blotted on PVDF (Western blot); also called recombinant ERα36
T1 sequence: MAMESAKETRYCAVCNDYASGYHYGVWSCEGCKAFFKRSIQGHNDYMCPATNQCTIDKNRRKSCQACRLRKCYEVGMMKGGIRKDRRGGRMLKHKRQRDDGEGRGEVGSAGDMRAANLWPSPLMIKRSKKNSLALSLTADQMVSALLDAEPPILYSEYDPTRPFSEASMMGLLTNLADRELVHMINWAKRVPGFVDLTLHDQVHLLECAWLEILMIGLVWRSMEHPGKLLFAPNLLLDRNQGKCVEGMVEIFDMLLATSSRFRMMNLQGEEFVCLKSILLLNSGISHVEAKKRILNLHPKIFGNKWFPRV
Experimental: ScFv1˜ScFv7 obtained after purification and renaturation were characterized using Western Blot. HEK293 cells were artificially constructed to express recombinant ERα36. Human breast cancer cells SK-BR-3 and ERα36-expressing HEK293 cells were cultured, harvested, and lysed by lysis buffer to obtain the cell lysates respectively. 20 μg/lane of the lysates were then loaded for SDS-PAGE. After electrophoresis, the protein samples were electronically transferred to PVDF membrane labeled with ScFv1˜ScFv7 respectively. The membranes were blocked with non-fat milk and anti-His-HRP was added to show the resulting images (FIG. 16).

[2] = target: T2, biotinylated ERα36 (chemically synthesised target peptide, SEQ ID NO:2) (human, labeled with biotin (site not stated)); assay: ELISA on biotinylated ERα36 (streptavidin plate), ScFv 0.28 µg/ml, well 1
T2 construct: also called biotinylated ER36; biotinylated ERα36 peptides
T2 peptide: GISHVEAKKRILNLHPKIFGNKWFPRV
Experimental: (§1) Streptavidin-coated 96-well plates were washed twice with PBS. Biotinylated ERα36 (final concentration of 20 μg/ml) was added into each testing well. The plates were incubated for 2 h at room temperature and washed three times with PBST. Re-natured ScFv samples (100 μl, S14A1r1, S24A2r2, S33A2r1, S41A3r3, S53A1r1, S66A1r1 and S72A2r1) were added into the testing wells respectively. Each ScFv was diluted five times in five gradients, and two parallel wells were loaded with each ScFv at each gradient. The plates were incubated at 37° C. for 1 h. The plates were washed three times with PBST, followed by addition of 100 μl anti-His-6 mouse monoclonal antibody (1:2000 dilution) per well and 1 h incubation at 37° C. The plates were washed three times with PBST, followed by addition of 100 μl goat anti-mouse-HRP (1:2500 dilution) per well and 1 h incubation at 37° C. The plates were washed six times with PBST, followed by addition of 100 μl OPD to develop under the protection from light. The reactions were terminated by adding 50 μl 2M H₂SO₄ to each well, and data were collected by microplate reader at 490 nm.
(§2) One positive control and three negative controls were performed in parallel. The positive control used rabbit anti-ER multi-clonal antibody serum in replacement of the ScFv re-natured sample and goat-anti-rabbit-HRP in replacement of goat-anti-mouse HRP.

[3] = target: T2, biotinylated ERα36 (chemically …); assay: ELISA on biotinylated ERα36 (streptavidin plate), ScFv 0.28 µg/ml, well 2
Experimental: as §1, §2

[4] = target: T2, biotinylated ERα36 (chemically …); assay: phage ELISA, biotinylated ERα36 on neutravidin plate, well 1
Experimental: (§3) Neutravidin-coated plates (purchased from Pierce) were washed with washing buffer (PBS containing 0.1% Tween-20) and all wells of the plates were blocked by incubating in blocking buffer at 4° C. for 1-2 h. Then the blocked plates were taken away from the blocking buffer, washed six times with washing buffer and dried upside-down. Biotinylated ERα36 in PBS (100 μl) was added to each testing well of the plates, incubated for 1-2 h at room temperature and removed. The plates were washed once with washing buffer. Phage solution (100 μl) was added per well and incubated for 1-2 h at room temperature. The plates were washed six times with the washing buffer. HRP-conjugated rabbit anti-M13 antibody (purchased from GE Healthcare) was diluted by 1:5,000 in blocking buffer. The diluted HRP-conjugated rabbit anti-M13 antibody (100 μl) was added to each well and incubated for 1 h at room temperature followed by washing six times with washing buffer.
(§4) HRP substrate solution (100 μl) was added to each testing well and incubated for 30 min at room temperature. The signals were detected using a microplate reader at 490 nm. […] The positive controls were plates coated with M13 phage and detected with HRP-conjugated anti-M13 antibodies.

[5] = target: T2, biotinylated ERα36 (chemically …); assay: phage ELISA, biotinylated ERα36 on neutravidin plate, well 3
Experimental: as §3, §4

[6] = target: T2, biotinylated ERα36 (chemically …); assay: phage ELISA, biotinylated ERα36 on neutravidin plate, well 2
Experimental: as §3, §4

B1: human anti-ERα36 ScFv6 (purified, re-natured) (scFv)
scFv: EIVMTQSPGTLSLSPGERATLSCRASQSVDSNFLAWYQQRPGQAPRLLIYGVSSSATGIPDRFSGSGSGTDFTLSIDRLEPEDFAVYYCQQYGSSPTFGGGTKLEIKRSGGSTITSYNVYYTKLSSSGTQVQLQESGGGLVQPGRSLRLSCAASGFTFDDYAMHWVRQAPGKGLEWVSGISWNSGSIGYADSVKGRFTISRDNAKNSLYLQMNSLRAEDTAVYYCARSGDYGAFDIWGQGTMVTVSSAS
notes: also called S66; S66A1r1
B1: binds [1].

B2: human anti-ERα36 ScFv3 (purified, re-natured) (scFv)
scFv: QSVLTQPASVSGSPGQSITISCTGTSSDVGGYNYVSWYQQHPGKAPKLMIYDVSKRPSGVSNRFSGSKSGNTASLTISGLQAEDEADYYCSSYTSSSTLVFGGGTKLTVLGSGGSTITSYNVYYTKLSSSGTEVQLVQSGGGVAQPGRSLRLSCAASGITFNSYGMHWVRQAPGKGLEWVAVMPYDGSNEYYADSVKGRFTISRDNSKNTLYLQMNSLRAEDTAVYYCAKGSGMVQLWADAFDVWGQGTMVTVSSAS
notes: also called S33; S33A2r1
With B2 the OD490 [2] was 0.159 OD490, the OD490 [3] was 0.171 OD490 and the binding result [1] was “binds”.

B3: human anti-ERα36 ScFv2 (purified, re-natured) (scFv)
scFv: QSALTQPASVSGSPGQSITISCTGTSSDVGGYNYVSWYQQHPGKAPKLMIYDVSKRPSGVSNRFSGSKSGNTASLTISGLQAEDEADYYCSSYTSSSTLVFGGGTKLTVLGSGGSTITSYNVYYTKLSSSGTQVQLLESGAEVKKPGASVKVSCKASGYTFTAYYMHWVRQAPGQGLEWMAMIDPSGSITSYAQKFQGRVTMSRDTSTSTLYMELSSLRSDDTAVYYCARDLKEGFSVPGAFDIWGQGTMVTVSSAS
notes: also called S24; S24A2r2
For B3, the OD490 [2] was 0.093 OD490, the OD490 [3] was 0.09 OD490 and the binding result [1] was “binds”.

B4: human anti-ERα36 ScFv7 (purified, re-natured) (scFv)
scFv: QSVLTQPPSVSAAPGQKVTISCSGSSSNIGNNYVSWYQQLPGTAPKLLIYDNNKRPSGIPDRFSGSKSGTSATLGITGLQTGDEADYYCGTWDSSLSAGVFGGGTKLTVLGSGGSTITSYNVYYTKLSSSGTEVQLVQSGGGLVQPGRSLRLSCAASGFTFDDYAMHWVRQAPGKGLEWVSGISWNSGSIGYADSVKGRFTISRDNAKNSLYLQMNSLRAEDTALYYCAKEGDSSGWSPDYWGQGTLVTVSSAS
notes: also called S72; S72A2r1
B4: binds [1].

B5: phage-displayed ScFv7 (phage clone 12) (scFv)
scFv: B4 scFv
notes: The phage coat protein fusion partner is not described; also called phage single clone No. 12
B5 was tested, and the “ELISA Signal (OD490)” value [4] was 0.381 OD490, the “ELISA Signal (OD490)” value [5] was 0.383 OD490 and the “ELISA Signal (OD490)” value [6] was 0.388 OD490.
